From PMC4110903 (Methods in enzymology, 2014) come the findings set out here.

This assay deals with T1, MBP-tagged full length human HSPC300 (human, UniProt Q8WUW1 1-75).
T1 sequence (looked up): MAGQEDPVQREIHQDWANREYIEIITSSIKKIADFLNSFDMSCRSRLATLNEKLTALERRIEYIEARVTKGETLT
Nature of the assay: reconstitution and co-elution on anion exchange chromatography.

B1: MBP-tagged WAVE217: human WAVE1 (1-217)-(GGS)6-(485-559) (domain or fragment)
chain: MPLVKRNIDPRHLCHTALPRGIKNELECVTNISLANIIRQLSSLSKYAEDIFGELFNEAHSFSFRVNSLQERVDRLSVSVTQLDPKEEELSLQDITMRKAFRSSTIQDQQLFDRKTLPIPLQETYDVCEQPPPLNILTPYRDDGKEGLKFYTNPSYFFDLWKEKMLQDTEDKRKEKRKQKQKNLDRPHEPEKVPRAPHDRRREWQKLAQGPELAEDDGGSGGSGGSGGSGGSGGSKRHPSTLPVISDARSVLLEAIRKGIQLRKVEEQREQEAKHERIENDVATILSRRIAVEYSDSEDDSEFDEVDWLE
Consider B1, for which the binding result was “binds”.
